The text below walks through data of publication PMC10618197.

For experiment [1], the target named is HbpD-SpyCatcher fusion protein displayed on the OMV surface (not stated | Streptococcus pyogenes). Kind of experiment: SEC; 10 µM SpT-CF incubated with OMV isolates for 24 h at 4 °C; SEC-HPLC on Sepharose CL-4B in PBS pH 7.4; AUC of the OMV peak of the fluorescent chromatogram normalized to the AUC of the corresponding UV peak.
In experiment [2] the target is AIDA-SpyCatcher fusion protein displayed on the OMV surface (Streptococcus pyogenes | not stated). Described as above.
For experiment [3], the target named is HbpD-SpyCatcher fusion protein displayed on the OMV surface (not stated | Streptococcus pyogenes). Kind of experiment: SDS-PAGE with in-gel fluorescence of the covalent adduct; 10 µM SpT-CF incubated with OMV isolates for 24 h at 4 °C; fluorescence of the specific band normalized to the OmpF band after PageBlue staining; 3 separate OMV isolates for each plasmid.

Experiment [4] concerns the target AIDA-SpyCatcher fusion protein displayed on the OMV surface (Streptococcus pyogenes | not stated). The experiment is described as above.

With “carboxyfluorescein coupled SpyTag (peptide)”, the fluorescence AUC of the OMV peak normalized to the UV AUC in experiment [1] stood at 2.25 AU; in experiment [2], 6.86 AU. Further, the SpT-CF band fluorescence normalized to the OmpF band in experiment [3] amounted to 4.15 AU; in experiment [4] it was 6.55 AU.
